Where a chain is given by its changes, count along the chain named.
How the values were obtained:
GST-TRIPT16M/L17S = test system: T1, GST-TRIPT16M/L17S
T1 sequence: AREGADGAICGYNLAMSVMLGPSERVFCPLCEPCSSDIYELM

GST-TRIPE32G = test system: T2, GST-TRIPE32G
T2 sequence: T1 sequence with M16T, S17L, E32G

GST-TRIPα = test system: T3, GST-TRIPα
T3 sequence: T1 sequence with M16T, S17L

Chain of GST [GST: P08515] (P08515 whole entry): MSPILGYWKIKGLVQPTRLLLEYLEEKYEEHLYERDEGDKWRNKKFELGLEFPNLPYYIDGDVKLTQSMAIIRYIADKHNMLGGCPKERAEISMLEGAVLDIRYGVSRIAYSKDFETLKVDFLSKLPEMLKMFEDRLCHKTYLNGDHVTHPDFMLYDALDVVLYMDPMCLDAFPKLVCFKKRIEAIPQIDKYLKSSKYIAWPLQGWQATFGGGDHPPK

Substance: MBP-Tgat (aa 1-255)
- Tgat GEF activity on RhoA, kinetics fluorescence assay (kobs) (GST-TRIPT16M/L17S): inhibited Tgat GEF activity in a dose-dependent manner
- Tgat GEF activity on RhoA, kinetics fluorescence assay (kobs) (GST-TRIPE32G): inhibited Tgat GEF activity in a dose-dependent manner
- Tgat GEF activity on RhoA, kinetics fluorescence assay (kobs) (GST [GST: P08515]): GST alone (not shown) ... had no effect
- Tgat GEF activity on RhoA, kinetics fluorescence assay (kobs) (GST-TRIPα): GST-TRIPα, at the same concentrations, had no effect
